Experimental data published in PMC12044695.

Experiments:
Experiment in all cases: ELISA; enzyme-linked lectin assay (ELLA): extracted glycoproteins immobilised at 4 μg/mL on high-binding 96-well plates, blocked with 0.5% PVA, probed 2 h at room temperature with WGAHRP or AuNP–WGAHRP (1 μg/mL WGAHRP) in PBS with 1 mM CaCl2 and 1 mM MgCl2, ABTS read at 405 nm; then the same plate probed with WGA antibodies and AlexaFluor 633 secondary antibodies (FLISA)
[1] = biological target: WGA-binding glycoproteins purified from C2C12 cells in growth condition
[2] = biological target: WGA-binding glycoproteins purified from NSC-34 cells in differentiation conditions
[3] = biological target: WGA-binding glycoproteins purified from NSC-34 cells in growth condition
[4] = biological target: WGA-binding glycoproteins purified from NE-4C cells in growth condition
[5] = biological target: WGA-binding glycoproteins purified from C2C12 cells in differentiation conditions

Measured: fluorescence intensity (FLISA) against WGAHRP (% lower than WGAHRP)

gold nanoparticle-conjugated WGAHRP (AuNP-MSA-WGAHRP conjugate) (from UniProt P00433 31-338)
50: [1] | [2] | [3] | [4] | [5]
